Reference: US20180194839A1 (Novartis, published 2018)
Where two headings read alike, the source gives them in different places.

Legend:
[1] = molecular target: T1, recombinant cynomolgus IL-17F (SEQ ID NO: 80) (cynomolgus monkey, UniProt Q96PD4 31-163 (human entry), limits assumed); assay: ELISA, coated antigen, Ab 1 µg/ml
T1 construct: also called cynoIL-17F; cyno IL-17F
T1 chain: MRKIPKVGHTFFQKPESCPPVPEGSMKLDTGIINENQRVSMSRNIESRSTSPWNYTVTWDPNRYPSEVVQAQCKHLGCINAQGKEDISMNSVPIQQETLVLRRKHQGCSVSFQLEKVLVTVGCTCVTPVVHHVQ

[2] = molecular target: T2, recombinant human IL-17F (SEQ ID NO: 77) (human, UniProt Q96PD4 31-163); assay: ELISA, coated antigen, Ab 1 µg/ml
T2 construct: homodimer; also called huIL-17F; rhuIL-17F
T2 sequence: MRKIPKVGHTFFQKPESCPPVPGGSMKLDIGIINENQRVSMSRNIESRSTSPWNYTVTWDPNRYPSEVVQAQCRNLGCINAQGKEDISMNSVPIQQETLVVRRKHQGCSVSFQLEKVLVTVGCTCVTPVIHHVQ

[3] = molecular target: T3, recombinant rat IL-17A (SEQ ID NO: 85) (rat, UniProt Q61453 18-150); assay: ELISA, coated antigen, Ab 1 µg/ml
T3 construct: also called rratIL-17A; rIL-17A
T3 sequence: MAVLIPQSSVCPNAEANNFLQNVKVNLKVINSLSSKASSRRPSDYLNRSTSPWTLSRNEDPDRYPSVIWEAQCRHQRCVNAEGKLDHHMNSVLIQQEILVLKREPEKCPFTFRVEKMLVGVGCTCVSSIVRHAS

[4] = molecular target: T4, recombinant cynomolgus IL-17A (SEQ ID NO: 79) (cynomolgus monkey, UniProt Q16552 24-155 (human entry), limits assumed); assay: ELISA, coated antigen, Ab 1 µg/ml
T4 construct: also called cynoIL-17A; cyno IL-17A
T4 chain: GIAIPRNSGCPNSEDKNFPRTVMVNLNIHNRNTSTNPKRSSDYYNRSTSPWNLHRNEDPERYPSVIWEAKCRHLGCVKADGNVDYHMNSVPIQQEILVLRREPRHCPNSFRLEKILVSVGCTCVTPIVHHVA

[5] = molecular target: T1, recombinant cynomolgus IL-17F (SEQ ID …); assay: ELISA, coated antigen
[6] = molecular target: T2, recombinant human IL-17F (SEQ ID NO: 77); assay: ELISA, coated antigen
[7] = molecular target: T5, recombinant mouse IL-17A/F (R&D Systems Cat#5390-IL) (mouse, UniProt Q62386 26-158; Q7TNI7 29-161, limits assumed); assay: SPR (Biacore), captured antibody, antigen as analyte
T5 construct: bought heterodimer; also called mIL-17A/F; rmIL-17A/F
T5 sequence (looked up) 1: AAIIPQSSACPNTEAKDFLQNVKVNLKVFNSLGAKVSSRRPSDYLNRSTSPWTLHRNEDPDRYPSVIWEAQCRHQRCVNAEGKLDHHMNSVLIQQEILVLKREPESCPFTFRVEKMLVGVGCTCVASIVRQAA
T5 sequence (looked up) 2: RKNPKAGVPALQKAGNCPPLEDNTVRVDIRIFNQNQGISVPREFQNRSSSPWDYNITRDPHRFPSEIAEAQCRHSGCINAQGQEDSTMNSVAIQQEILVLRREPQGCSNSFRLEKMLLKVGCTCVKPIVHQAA

[8] = molecular target: T6, human IL-17A (construct not stated) (human, UniProt Q16552 24-155, limits assumed); assay: cell-based or functional assay
T6 sequence: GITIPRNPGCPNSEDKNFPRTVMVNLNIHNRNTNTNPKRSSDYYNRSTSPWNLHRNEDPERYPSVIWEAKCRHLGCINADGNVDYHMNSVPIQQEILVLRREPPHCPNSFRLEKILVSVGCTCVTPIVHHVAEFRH

[9] = molecular target: T7, recombinant human IL-17A (SEQ ID NO: 78) (human, UniProt Q16552 24-155, limits assumed); assay: SPR (Biacore), captured antibody, antigen as analyte
T7 construct: homodimer; also called huIL-17A; hulL-17A
T7 sequence: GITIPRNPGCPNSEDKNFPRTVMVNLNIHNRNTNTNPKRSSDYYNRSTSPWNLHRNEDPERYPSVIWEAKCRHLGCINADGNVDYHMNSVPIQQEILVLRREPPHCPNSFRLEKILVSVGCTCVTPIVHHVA

[10] = molecular target: T8, recombinant mouse IL-17A (SEQ ID NO: 83) (mouse, UniProt Q62386 26-158); assay: as above
T8 construct: also called mIL-17A; rmIL-17A
T8 sequence: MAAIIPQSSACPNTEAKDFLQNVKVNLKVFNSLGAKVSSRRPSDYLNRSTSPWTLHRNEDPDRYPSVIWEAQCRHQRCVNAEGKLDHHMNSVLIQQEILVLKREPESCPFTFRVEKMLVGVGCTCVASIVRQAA

[11] = molecular target: T5, recombinant mouse IL-17A/F (R&D Systems …); assay: as above; remark: listed apart in the source
[12] = molecular target: T9, recombinant human IL-17A/F heterodimer (human, UniProt Q16552 24-155; Q96PD4 31-163, limits assumed); assay: as above
T9 construct: heterodimer of an IL-17A subunit and an IL-17F subunit; also called huIL-17A/F; rhuIL-17A/F
T9 sequence (looked up) 1: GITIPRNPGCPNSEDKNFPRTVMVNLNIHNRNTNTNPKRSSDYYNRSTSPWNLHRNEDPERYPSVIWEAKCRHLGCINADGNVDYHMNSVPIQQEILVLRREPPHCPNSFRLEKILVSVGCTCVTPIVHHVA
T9 sequence (looked up) 2: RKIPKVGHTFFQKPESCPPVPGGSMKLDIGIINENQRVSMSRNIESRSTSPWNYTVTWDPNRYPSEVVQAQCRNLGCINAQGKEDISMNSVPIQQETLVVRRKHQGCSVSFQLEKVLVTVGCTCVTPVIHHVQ

[13] = molecular target: T3, recombinant rat IL-17A (SEQ ID NO: 85); assay: as above
[14] = molecular target: T4, recombinant cynomolgus IL-17A (SEQ ID …); assay: as above

B1: XAB4 (antibody, human IgG1, kappa, V domains shown)
VH: EVQLVESGGDLVQPGGSLRLSCAASGFTFSSYWMSWVRQAPGKGLEWVANIKQDGSEKYYVDSVKGRFTISRDNAKNSLYLQMNSLRAEDTAVYYCARDRGSLYYWGQGTLVTVSS
VL: AIQLTQSPSSLSASVGDRVTITCRPSQGINWELAWYQQKPGKAPKLLIYDASSLEQGVPSRFSGSGSGTDFTLTISSLQPEDFATYYCQQFNSYPLTFGGGTKVEIKR
notes: also called MB435 N56Q
With B1 the O.D. [1] was 0.085 O.D, the O.D. [2] was 0.049 O.D and the O.D. [3] was 1.77 O.D. For the same binder, the O.D. [4] was 1.93 O.D, the binding result [5] was “no binding (tested: 1 µg/ml)” and the binding result [6] was “no binding (tested: 1 µg/ml)”. The Kd [7] was 0.26 nM, the “EC50, in vitro neutralization activity, T = 0 weeks” value [8] was 0.048 µg/mL and the “EC50, in vitro neutralization activity, T = 4 weeks at pH 8, 40°C (forced deamidation)” value [8] was 47 ng/ml.

B2: XAB1 (antibody, human IgG1, kappa, V domains shown)
VH: EVQLVESGGDLVQPGGSLRLSCAASGFTFSSYWMSWVRQAPGKGLEWVANIKQDGSEKYYVDSVKGRFTISRDNAKNSLYLQMNSLRAEDTAVYYCARDRGSLYYWGQGTLVTVSS
VL: AIQLTQSPSSLSASVGDRVTITCRPSQGIISALAWYQQKPGKAPKLLIYDASSLENGVPSRFSGSGSGTDFTLTISSLQPEDFATYYCQQFNSYPLTFGGGTKVEIKR
notes: human IgG1/kappa monoclonal antibody; also called parental XAB1; XAB1 IgG
For B2, the Kd [9] was 0.0403 nM, the koff [9] was 9.39e-05 s⁻¹ and the Kd [10] was 0.353 nM. It also gave a koff [10] of 0.000143 s⁻¹, a Kd [11] of 5.09 nM and a koff [11] of 0.000955 s⁻¹. The Kd [12] was 1.48 nM, the koff [12] was 0.00134 s⁻¹ and the Kd [13] was 0.301 nM. For the same binder, the koff [13] was 0.000164 s⁻¹, the Kd [14] was 0.526 nM and the koff [14] was 0.000113 s⁻¹.
